Laboratory results reported in the domain aggregation screens of Martell et al. (2025).

Experiment: soluble fraction after stress (log2 fold change); higher = more stays soluble; pooled small domains, quantitative proteomics
Conditions: stress: pH 4
In short: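 After pH 4 stress, pooled custom libraries of small protein domains were quantified with high-throughput quantitative proteomics. Aggregation propensity is taken from the fold change in each domain's soluble amount following the acid stress. The scale is log2, where higher values mean more stayed soluble.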
For “HMETLEDHRKKTRQQLFDALSHLLQTSTFESLTMAKIAEEAGVGRTAVYNHFQDKEALLLAFITYETGQ”, the “soluble fraction (log2)” value was -0.815. With “HMETLETYTSRLRQLEDITNNFKGVDKSFAIQAGREIRVMVVPEQVSDADMILMARDISKAIEAELEYPGQ” the “soluble fraction (log2)” value was -0.315. For “HMETLGADLRALRKSRGLTLLDMAESLGRSVGWLSQVERDLSDPSISDLREIAELLGVPISMLFRH”, the “soluble fraction (log2)” value was -1.33. With “HMETLKEMDSKGAINASEVNVREGAGTSSSKMYSLSKGASVDVTGIKGDWYRVHTSKGTGYVLAKYVTLVS” the “soluble fraction (log2)” value was no less than 0.43. In the case of “HMETLYGQIVNDIMEKIESNAWPVGYVIPTESDFQKQYGVSRATVRNAILKLAHLGYLVRKKGSGTYVTRP”, the “soluble fraction (log2)” value is reported as -0.287. For “HMETPEIPGLTPRQVEIMLLVGKGYSNKEIARFLTISPETVKTHLKEVFLRFGLRNRVEAIDFTRQNGL”, the “soluble fraction (log2)” value was -0.358. With “HMETPLSAADFKIVFGEEYEIGTDANGLPKMGSRINRQLQNRFLTWASVNKRKATMSAYQDWVASDPAAQ” the “soluble fraction (log2)” value was -0.693. In the case of “HMETQVKVPNVVGMTQSKAIAKLKESKLDYEVQEQKHDGDKGKVVDQSEAEGTYVDRGTKVIIYVSTGE”, the “soluble fraction (log2)” value is reported as no less than 0.43. For “HMETSIQFIRLEIGHNHPWVNQTLKEIPTIPGTLIAAVLRGDEDQAIIPKGDTLLKEGDSVIIGAKEYQD”, the “soluble fraction (log2)” value was -1.61. For “HMETSLVIQIDGAVNSPGIYQVTPGTRIFEALELAGGVREDAQTEALNLALPVYDGQRISIPSSFA”, the “soluble fraction (log2)” value was -1.58. For “HMETTVSYSGVVTASVLRIRKGPSVSSSVAGTLKKGTGVSIIFEDNGWGKLADGSGWVSLTYIKKNSTP”, the “soluble fraction (log2)” value was -0.101. For “HMETWDQAYETIKQNILNLTYPPGMPLTEAKLAEELGMSRSPVRTALRMLQTDGLIVTDYYKSMTVKEI”, the “soluble fraction (log2)” value was -2.07. In the case of “HMETWKLYKRAYKKYYARYMKGNMSEADFKAWATQAAADRDAAIEQITPEIDAALKAQIIEQLREKLNR”, the “soluble fraction (log2)” value is reported as -0.134. For “HMEVAAAENYRSKLSSFAKDTISVWQTELLLGTISDDDKASLTEWMAYIKALQVVDTSDPESITWPTEPT”, the “soluble fraction (log2)” value was -1.12. In the case of “HMEVAASEQRDNLWALARRVLSGEQYDVLYLRYVEDFSVAQIADVVGKTQTHVKVLLFRGRNNLGSRLRS”, the “soluble fraction (log2)” value is reported as -0.0684. With “HMEVENAQLLARLTPQEHRVFERVVAGLSNREIGSEMDISIKTVEVHRARVMRKLEANSVAELVRFHIHN” the “soluble fraction (log2)” value was -0.811. With “HMEVGDTYLGKVTRVSSFGAFIEVLPGKEGLMRQNDAGEGGMPEVGDEVMVRVMEVDHLGRINLSGKLDD” the “soluble fraction (log2)” value was -1.32. For “HMEVGKRIAEIRKENRMSQEQFGQLFHVTRQTVSNWENAKSYPDLQTLVKISELFEITMDELLK”, the “soluble fraction (log2)” value was -0.454. With “HMEVKVSGHLEAIGGVYHMKLSWIDDAGKRRRKSKSTGLAERGNKKRANDMLIDFMREQEAEIAASGD” the “soluble fraction (log2)” value was no less than 0.43. In the case of “HMEVLSKRGSTGTEVINIQKKLKNWGYYTGSVDGIYGKLTEEAVRYFQRTNGLTVDGIAGKNTLAAMGIA”, the “soluble fraction (log2)” value is reported as 0.399. With “HMEVNLEPLIALLRKHRDLDLSGYSKSTLGRRITYFMGLNKISSIDELGRRLAEDDLLFQEFLDKLT” the “soluble fraction (log2)” value was -0.818. In the case of “HMEVSLEDKMDYLTNYATTHKNFSFRNLLESSSGKIEVIVTFLAILELMKMGRINISQEHIFDDIIIESRI”, the “soluble fraction (log2)” value is reported as -1.8. For “HMEVSTRQVRAALRDIIEAEDKKRPLSDEAITARLREQGLPVARRTVAKYREQMGILAARLRK”, the “soluble fraction (log2)” value was 0.0717. For “HMEVVRVEPGATVRDLGEALGVPPTRIIQILMGLGEMKTVTQTLSTEEIELVAEELGRRVEV”, the “soluble fraction (log2)” value was -0.248. For “HMEWVVVPDVRRQLLPEAQRRVNKARLRLEVAGGWPAEPLLAMVVDQKPGPETRVPLNSIVVVVVRNLP”, the “soluble fraction (log2)” value was -0.0893. In the case of “HMEYELYALKEEVLKRLTREDRELLILLFEERRTIHAVAQRLGLSDSAVYKRRTQLVNKVKVIASMLM”, the “soluble fraction (log2)” value is reported as -0.592. With “HMEYKNYYDSPVGRLELLSDGVSLTAVLFENQQGDGTREENTSLAIFKEATQWLDAYFKGDNPEITIPL” the “soluble fraction (log2)” value was 0.33.
